Legend:
Conditions in all cases: label: 5' biotin
[1] = biological target: T1, Human serum albumin (HSA) (Homo sapiens, UniProt P02768 P02768:25-609); assay: ELONA; indirect ELISA: + at 200, 2, 0.2 nM, - at 20 nM; PBST, room temperature
Source text: The binding assay of selected aptamers against HSA and aptamers against GHSA is deteimined by using Indirect Enzyme-Linked Immunosorbent Assay (Indirect ELISA) and Direct Enzyme-Linked Immunosorbent Assay (Direct ELISA), as described below. 3.1. Indirect Enzyme-Linked Immunosorbent Assay (Indirect ELISA) The principle of this experiment is based on two antibodies, which are antibodies against 5' biotinylated aptamer and antibodies against the first antibody. The second antibody is conjugated with horseradish peroxidase enzyme (HRP), which can changes TMB color from blue to be yellow. The yellow color intensity is direct indicator for the target protein concentration. Random selected aptamers in Table 5 and Table 6 were chosen for analysis using this method. Indirect ELISA Protocol Step 1: 0.8 μg of BSA or HSA or GHSA was added in 50 μl of 0.05 M carbonate buffer in 96 well plate (50 μL/well) and incubated at 4° C. for 1 night. In this process, all proteins will be coated on the 96 well plate.
Step 2: The reaction from step 1 was washed 5 times with Phosphate buffer (PBST) (0.05% Tween) using ELISA washing machine (Fluido 2) and tapped for 3-5 times.
Step 8: 50 μL of 0.6 M H_2SO_4 was added in the reaction and immediately measured the $OD_{450\ nm}$ using spectrophotometer.

[2] = biological target: T1, Human serum albumin (HSA); assay: EMSA; 25 C 1 h
Method: (§1) After that the reaction was incubated at 4° C. for 1 minutes before use. Step 2: 1 µL HSA was mixed with 9 µL of aptamer against HSA and 1 µL of 0.4 µg/µL GHSA was mixed with 9 µL of aptamer against GHSA. Step 3: The reaction from step 2 was incubated at 25° C. for 1 hour and analyzed on 8% polyacrylamide gel at 100 V for 30 minutes. Step 4: Aptamers on the polyacrylamide gel from step 3 were transferred to nylon membrane (Amersham Hybond-N+; GE Healthcare). Classical DNA/RNA transferring method was used. The transferring buffer was SSC (150 mM […] and 15 mM Sodium citrate, pH 7.0) and incubation time was 12 h. Step 5: Aptamer analysis using Phototope®-Star Detection Kit (New England Biolabs) Nylon membrane was removed from the transferring set up and put in the clear plastic container containing solution A (5% Sodium Dodecyl Sulfate (SDS), 125 mM NaCl, 25 mM Sodium Phosphate, pH 7.5). The system was incubated at room temperature for 5 minutes with gentle shaking. The solution was discarded and 10 µL of streptavidin in 20 mL of solution A was added in the reaction container and incubated at room temperature for 5 minutes with gentle shaking. The solution was discarded. Then the membrane was washed 3 times by using solution B (1:10 of solution A in steriled water) with gentle shaking for 5 min. […]

[3] = biological target: Glycated human serum albumin (GHSA) (Homo sapiens, UniProt P02768 P02768:25-609); assay: EMSA; unit as printed (umole); 25 C 1 h; also EMSA positive in Table 6 and direct ELISA positive
Method: Step 5: Aptamer analysis using Phototope®-Star Detection Kit (New England Biolabs) Nylon membrane was removed from the transferring set up and put in the clear plastic container containing solution A (5% Sodium Dodecyl Sulfate (SDS), 125 mM NaCl, 25 mM Sodium Phosphate, pH 7.5). The system was incubated at room temperature for 5 minutes with gentle shaking. The solution was discarded and 10 µL of streptavidin in 20 mL of solution A was added in the reaction container and incubated at room temperature for 5 minutes with gentle shaking. The solution was discarded. Then the membrane was washed 3 times by using solution B (1:10 of solution A in steriled water) with gentle shaking for 5 min. Then the washing buffer was discarded before the next round washing. […] in 20 mL of solution A was added in the container. Then the system was incubated at room temperature for 5 minutes with gentle shaking. Then the solution is discarded. The membrane was washed 3 times by solution C (10 mM Tris HCl, 10 mM NaCl, 1 mM […], pH 9.50) with gentle shaking and then solution is discarded. […]
The quantitative binding of G8 aptamer from this invention and clone 9 aptamer from the previous study were analyzed by electromobility shifted assay (EMSA) and results were compared. […]

[4] = biological target: T1, Human serum albumin (HSA); assay: EMSA; 25 C 1 h; indirect ELISA also + at 0.2-200 nM (Table 9)
Method: as §1

T1 sequence (P02768 25-609, one chain of several): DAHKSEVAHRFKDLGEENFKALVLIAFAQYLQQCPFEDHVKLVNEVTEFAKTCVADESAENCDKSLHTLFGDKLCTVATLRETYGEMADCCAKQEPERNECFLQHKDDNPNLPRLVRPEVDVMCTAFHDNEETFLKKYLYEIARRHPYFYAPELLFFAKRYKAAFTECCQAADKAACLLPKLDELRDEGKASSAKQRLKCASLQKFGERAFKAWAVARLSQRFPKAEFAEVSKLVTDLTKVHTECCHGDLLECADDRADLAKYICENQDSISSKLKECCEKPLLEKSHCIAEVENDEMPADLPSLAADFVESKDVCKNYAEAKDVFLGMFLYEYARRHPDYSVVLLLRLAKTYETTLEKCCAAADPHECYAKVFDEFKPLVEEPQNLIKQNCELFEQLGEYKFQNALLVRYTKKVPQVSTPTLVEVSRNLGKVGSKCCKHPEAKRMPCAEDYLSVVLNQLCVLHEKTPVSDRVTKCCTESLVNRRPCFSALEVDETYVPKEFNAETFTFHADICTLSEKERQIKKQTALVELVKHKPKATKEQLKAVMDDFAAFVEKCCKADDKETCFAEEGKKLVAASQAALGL
Sequence of Glycated human serum albumin (GHSA) (P02768 25-609, one chain of several): as above

B1: clone 9 (ssDNA)
DNA: TAACTCACTCCATACTCACTTGCTGATTCGCCAACAACACACCCTTAAACAGTCCC
Q: Does B1 bind [1]?
A: binds

B2: H8 (ssDNA)
DNA: ATACCAGCTTATTCAATTCCCCCGGCTTTGGTTTAGAGGTAGTTGCTCATTACTTGTACGCTCCGGATGAGATAGTAAGTGCAATCT
Q: Does B2 bind [2]?
A: binds

B3: G8 (ssDNA)
DNA: GGTGCGGTTCGTGCGGTTGTAGTACTCGTGGCCGATAGAGGTAGTTTCG
Q: Does B3 bind [3]?
A: binds

B4: H14 (ssDNA)
DNA: ATACCAGCTTATTCAATTCGCGCACATATACAGGGCTTTACCAGCGGGGAAGGTTAGCGACGCGAGGGGGAGATAGTAAGTGCAATCT
Q: Does B4 bind [4]?
A: binds

Source: patent US9834772, “Aptamers bound human serum albumin and glycated human serum albumin” (National Science & Technology Development Agency)
